According to paper PMC5062252, “High-resolution crystal structure of the therapeutic antibody pembrolizumab bound to the human PD-1” (Scientific Reports, 2016):

Molecular target: T1, extracellular domain of human PD-1 (PD-1ECD), residues 32-160, C93S (human, C93S (stands in the printed letters))
T1 construct: additional N-terminal residues retained after restriction site cloning; additional C-terminal residues retained after cloning and TEV cleavage; also called programmed cell death-1; CD279; not shown: His6, C-terminal, cleaved
T1 chain: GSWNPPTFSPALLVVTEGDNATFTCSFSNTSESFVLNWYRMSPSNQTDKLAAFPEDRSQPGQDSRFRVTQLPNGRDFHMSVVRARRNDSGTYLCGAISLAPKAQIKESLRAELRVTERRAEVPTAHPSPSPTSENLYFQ
Assay: SEC; analytical gel filtration of the PemFv/PD-1ECD complex; data not shown
Conditions: both partners purified

- stoichiometry N: 1
B1: Fv fragment of pembrolizumab (PemFv) (other)
VL: EIVLTQSPATLSLSPGERATLSCRASKGVSTSGYSYLHWYQQKPGQAPRLLIYLASYLESGVPARFSGSGSGTDFTLTISSLEPEDFAVYYCQHSRDLPLTFGGGTKVEIKTSENLYFQ
VH: QVQLVQSGVEVKKPGASVKVSCKASGYTFTNYYMYWVRQAPGQGLEWMGGINPSNGGTNFNEKFKNRVTLTTDSSTTTAYMELKSLQFDDTAVYYCARRDYRFDMGFDYWGQGTTVTVSS
notes: pembrolizumab light chain variable region (PemVL); additional C-terminal residues retained after TEV cleavage; pembrolizumab heavy chain variable region (PemVH); Fv fragment: VL and VH as two separate chains, not linked; also called pembrolizumab Fv; Keytruda; not shown: His6, C-terminal, cleaved; copies: 1 + 1
